Consider 1 molecule from paper PMC7768483, “Gbx2 Is Required for the Migration and Survival of a Subpopulation of Trigeminal Cranial Neural Crest Cells”.

For the data set, the target named is GBX2 (full-length) (mouse, UniProt P48031 1-348). The data set is described as follows: EMSA; 720 nM GBX2, 940 pM probe; supershift with GBX2 antibody; 2X binding buffer: 20 mM Tris-HCl pH 7.4, 50 mM KCl, 1 mM DTT, 10% glycerol, 200 µg/mL BSA, 2.2 µg/mL poly dI/dC; 30 min at 25 °C; 6% native PAGE, Tris-glycine. Conditions: protein: recombinant; label: 32P end label (probe); blunt. A general note: A gel shift assay detects complexes by their altered migration in electrophoresis.
Sequence of GBX2 (full-length) (P48031 whole entry): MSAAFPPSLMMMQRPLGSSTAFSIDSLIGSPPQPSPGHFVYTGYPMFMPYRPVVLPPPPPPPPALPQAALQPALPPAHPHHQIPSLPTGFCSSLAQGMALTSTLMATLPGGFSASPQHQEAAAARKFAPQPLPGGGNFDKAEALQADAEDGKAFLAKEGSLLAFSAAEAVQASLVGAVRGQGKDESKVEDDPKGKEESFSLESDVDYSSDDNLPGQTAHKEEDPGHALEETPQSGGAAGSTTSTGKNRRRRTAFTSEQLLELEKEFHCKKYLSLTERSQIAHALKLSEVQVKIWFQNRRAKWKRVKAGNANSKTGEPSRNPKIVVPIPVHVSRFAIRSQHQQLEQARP

B1: NRP1 oligonucleotide (dsDNA)
DNA 1: AACATTCCAAAAATTATCAACCATTTCAGGAATACATTTCATAAAAGCTAGATTGAGTTCTGCTTGTTTTTTATT
DNA 2: AATAAAAAACAAGCAGAACTCAATCTAGCTTTTATGAAATGTATTCCTGAAATGGTTGATAATTTTTGGAATGTT
For the molecule B1, the binding result is given as “binds”.
